By EC50 (read off the curve) is commonly meant the midpoint of the concentration-response curve. A high value points to a need for much substance. The term Kd denotes the constant that tells how readily two partners part at equilibrium. A low value points to tighter binding.

From patent US20200325237A1 come the findings set out here.

Assay [1] deals with TfR2 (transferrin receptor 2) (UniProt Q9UP52). The experiment in a line: A450 plate assay on TfR2 (method not described in the text).
In assay [2] the target is hTfR (human transferrin receptor, source and construct not stated) (human) (UniProt P02786). The experiment in a line: ELISA; ratio of the Kd on HFE-captured hTfR to the Kd on directly coated hTfR.
hTfR (human transferrin receptor, source and construct not stated) (human), sequence (P02786 89-760 limits assumed): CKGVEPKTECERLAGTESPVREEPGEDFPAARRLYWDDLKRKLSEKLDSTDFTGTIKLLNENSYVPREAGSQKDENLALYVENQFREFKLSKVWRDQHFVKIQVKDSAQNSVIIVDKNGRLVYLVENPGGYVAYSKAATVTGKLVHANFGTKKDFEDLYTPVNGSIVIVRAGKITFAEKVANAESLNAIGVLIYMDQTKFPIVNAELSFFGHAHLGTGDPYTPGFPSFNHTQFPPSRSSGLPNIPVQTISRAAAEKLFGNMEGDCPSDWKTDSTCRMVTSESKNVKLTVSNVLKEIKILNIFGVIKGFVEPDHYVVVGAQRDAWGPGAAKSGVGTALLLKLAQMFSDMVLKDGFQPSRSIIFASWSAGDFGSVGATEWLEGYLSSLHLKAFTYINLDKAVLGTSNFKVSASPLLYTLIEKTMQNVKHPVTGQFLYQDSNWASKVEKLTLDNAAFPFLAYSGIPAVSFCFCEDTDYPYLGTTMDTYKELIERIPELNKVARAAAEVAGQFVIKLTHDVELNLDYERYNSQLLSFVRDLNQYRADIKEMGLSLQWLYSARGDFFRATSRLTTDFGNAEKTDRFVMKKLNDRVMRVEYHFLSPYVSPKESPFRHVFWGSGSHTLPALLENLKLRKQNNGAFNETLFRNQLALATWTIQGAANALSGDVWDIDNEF
For assay [3] the target is unchanged. The experiment in a line: ELISA; ratio of the Kd on transferrin-captured hTfR to the Kd on directly coated hTfR. In general terms: In an ELISA, binding on a coated surface is turned into a signal by an enzyme label.
Assay [4] shares this target. In words: ELISA, biotinylated antibody on hTfR captured by plate-coated HFE (HFE+TfR); fit: specific binding with Hill slope.
Assay [5] shares this target. The experiment in a line: ELISA, biotinylated antibody on hTfR captured by plate-coated human holo-transferrin (Tf+TfR); fit: specific binding with Hill slope.

TfR2 (transferrin receptor 2), sequence (Q9UP52 105-801 limits assumed): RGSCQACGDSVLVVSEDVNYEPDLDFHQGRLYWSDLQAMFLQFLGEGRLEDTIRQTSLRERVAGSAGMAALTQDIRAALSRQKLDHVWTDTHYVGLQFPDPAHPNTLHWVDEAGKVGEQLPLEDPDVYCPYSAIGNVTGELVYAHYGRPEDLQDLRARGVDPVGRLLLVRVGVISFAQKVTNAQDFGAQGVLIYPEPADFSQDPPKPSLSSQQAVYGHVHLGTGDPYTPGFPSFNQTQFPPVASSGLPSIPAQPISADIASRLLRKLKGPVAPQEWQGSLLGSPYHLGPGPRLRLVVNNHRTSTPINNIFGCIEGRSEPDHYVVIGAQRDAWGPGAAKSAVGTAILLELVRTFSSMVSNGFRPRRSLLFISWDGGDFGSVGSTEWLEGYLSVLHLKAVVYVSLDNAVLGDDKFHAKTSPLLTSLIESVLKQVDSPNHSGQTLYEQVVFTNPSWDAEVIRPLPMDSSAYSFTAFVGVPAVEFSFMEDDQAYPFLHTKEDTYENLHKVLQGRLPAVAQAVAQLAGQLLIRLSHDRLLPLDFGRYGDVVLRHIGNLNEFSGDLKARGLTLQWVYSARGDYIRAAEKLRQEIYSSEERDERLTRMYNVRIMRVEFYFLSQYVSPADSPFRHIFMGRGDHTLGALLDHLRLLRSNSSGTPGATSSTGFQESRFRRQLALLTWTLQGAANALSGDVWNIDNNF

Take TfR2 Ab B-6 (antibody): the EC50 (read off the curve) in assay [1] was found to be 0.3 nM.
In the case of blocking AF2474 (antibody), the Kd(HFE+TfR)/Kd(TfR) in assay [2] was 688. The Kd(Tf+TfR)/Kd(TfR) in assay [3] turned out to be 51.8. In assay [4], this substance registered a Bmax of 5.7 A450, a Kd of 28.9 nM and a h of 0.8. In assay [5], this substance came in with a Bmax of 4.26 A450, a Kd of 2.18 nM and a h of 1.12.
